Substitutions are numbered along the chain they refer to.
B1: SEQ ID NO: 2: engineered aryl sulfate-dependent NST enzyme, mutant of N-sulfotransferase domain of human NDST (protein)
chain: MSEEKDPLWQDPCEDKRHKDIWSKEKTCDRFPKLLIIGPQKTGAWALYHFLGMHPDLSSNYPSSETHGSIQFFNGHNYHKGIDWYMEFFPIPSNTTSDFYFEKSANYFDSEVAPRRAAALLPKAKVLTILINPADRAYSWYQHQRAHDDPVALKYTFHEVITAGSDASSKLRALQNRCLVPGWYATHIERWLSAYHANQILVLDGKLLRTEPAKVMDMVQKFLGVTNTIDYHKTLAFDPKKGFWCQLLEGGKTKCLGKSHGRKYPEMDLDSRAFLKDYYRDHNIELSKLLYKMGQTLPTWLREDLQNTR
modifications: Amino acid sequence encoding for engineered arylsulfate-dependent N-sulfotransferase variant 1
notes: engineered aryl sulfate-dependent NST enzyme, mutant of N-sulfotransferase domain of human NDST
B2: SEQ ID NO: 12: engineered aryl sulfate-dependent NST enzyme, mutant of N-sulfotransferase domain of human NDST (protein)
chain: B1 chain with Q40A, A46L, Y48H, G68S, K103T, L256A, G257H, S259G, H260L
modifications: Amino acid sequence encoding for engineered arylsulfate-dependent N-sulfotransferase variant 6
notes: as for B1
B3: SEQ ID NO: 4: engineered aryl sulfate-dependent NST enzyme, mutant of N-sulfotransferase domain of human NDST (protein)
chain: MSEEKDPLWQDPCEDKRHKDIWSKEKTCDRFPKLLIIGPSKTGAFLLTHFLGMHPDLSSNYPSSETGHSIQFFNGHNYHKGIDWYMEFFPIPSNTTSDFYFETSSNYFDSEVAPRRAAALLPKAKVLTILINPADRAYSWYQHQRAHDDPVALKYTFHEVITAGSDASSKLRALQNRCLVPGWYATHIERWLSAYHANQILVLDGKLLRTEPAKVMDMVQKFLGVTNTIDYHKTLAFDPKKGFWCQLLEGGKTKCHGKRWGRKYPEMDLDSRAFLKDYYRDHNIELSKLLYKMGQTLPTWLREDLQNTR
modifications: Amino acid sequence encoding for engineered arylsulfate-dependent N-sulfotransferase variant 2
notes: as for B1
B4: SEQ ID NO: 6: engineered aryl sulfate-dependent NST enzyme, mutant of N-sulfotransferase domain of human NDST (protein)
chain: MSEEKDPLWQDPCEDKRHKDIWSKEKTCDRFPKLLIIGPHGTGGHALYLFLGMHPDLSSNYPSSETGEEIQFFNGHNYHKGIDWYMEFFPIPSNTTSDFYFEKSANYFDSEVAPRRAAALLPKAKVLTILINPADRAYSWYQAQRAHDDPVALKYTFHEVITAGSDASSKLRALQNRCLVPGWYATHIERWLSAYHANQILVLDGKLLRTEPAKVMDMVQKFLGVTNTIDYHKTLAFDPKKGFWCQLLEGGKTKCGGKHLGRKYPEMDLDSRAFLKDYYRDHNIELSKLLYKMGQTLPTWLREDLQNTR
modifications: Amino acid sequence encoding for engineered arylsulfate-dependent N-sulfotransferase variant 3
notes: as for B1
B5: SEQ ID NO: 10: engineered aryl sulfate-dependent NST enzyme, mutant of N-sulfotransferase domain of human NDST (protein)
chain: MSEEKDPLWQDPCEDKRHKDIWSKEKTCDRFPKLLIIGPHKTGVHALYLFLGMHPDLSSNYPSSETGNHIGFFGGHNYHKGIDWYMEFFPIPSNTTSDFYFEKSAWYFDSEVAPRRAAALLPKAKVLTILINPADRAYSWYQHQRAHDDPVALKYTFHEVITAGSDASSKLRALQNRCLVPGWYATHIERWLSAYHANQILVLDGKLLRTEPAKVMDMVQKFLGVTNTIDYHKTLAFDPKKGFWCQLLEGGKTKCLGKSVGRKYPEMDLDSRAFLKDYYRDHNIELSKLLYKMGQTLPTWLREDLQNTR
modifications: Amino acid sequence encoding for engineered arylsulfate-dependent N-sulfotransferase variant 5
notes: as for B1
B6: SEQ ID NO: 59: full-length mutant of isoform 3 of the mouse 6OST enzyme, SEQ ID NO: 18 mutations (protein)
chain: MDERFNKWLLTPVLTLLFVVIMYQYVSPSCTSSCTNFGEQLRSGEARPPAVPSPARRAQAPLDEWERRPQLPPPPRGPPEGSRGVAAPEDEDEDPGDPEEEEEEEEEEPDPEAPENGSLPRFVPRFNFTLKDLTRFVDFNIKGRDVIVFLHIGHTGGTTFGRHLVKNIRLEQPCSCKAGQKKCTCHRPGKKETWLFSRFSTGWSCGTNADWTELTNCVPAIMEKKDCPRNHSHTRNFYYITMLRDPVSRYLGGWKHHQRGGTNKTSLHMCDGRSPTPDELPTCYPGDDWSGVSLREFMDCSYNLANNRQVRMLADLSLVGCYNLTFMNESERNTILLQSAKNNLKNMAFFGLTEFQRKTQFLFERTFNLKFISPFTQVNITRASNVDINDGARQHIEELNFLDMQLYEYAKDLFQQRYHHTKQLEHQRDRQKRREERRLQREHRAHRWPKEDRAMEGTVTEDYNSQVVRW
modifications: Amino acid sequence encoding for engineered arylsulfate-dependent 6-O-sulfotransferase variant 12
B7: SEQ ID NO: 61: full-length mutant of isoform 3 of the mouse 6OST enzyme, SEQ ID NO: 22 mutations (protein)
chain: B6 chain with T207S, N208H, G252S, T262A, A305G, V378F
modifications: Amino acid sequence encoding for engineered arylsulfate-dependent 6-O-sulfotransferase variant 13
B8: SEQ ID NO: 60: full-length mutant of isoform 3 of the mouse 6OST enzyme, SEQ ID NO: 20 mutations (protein)
chain: B6 chain with N208R, G252S, G253H, H257T, T262A, S266G, A305G, V378F
modifications: Amino acid sequence encoding for engineered arylsulfate-dependent 6-O-sulfotransferase variant 13

Legend:
[1] = NST activity: N-sulfated products detected by SAX-HPLC after lyase digestion; type: biochemical; conditions: PNS or NCS as sulfo donor, N-deacetylated heparosan acceptor, 37° C. overnight
Procedure: A study was conducted in accordance with embodiments of the present disclosure to confirm NST activity of enzymes comprising the amino acid sequence of SEQ ID NO: 2, SEQ ID NO: 4, SEQ ID NO: 6, SEQ ID NO: 8, SEQ ID NO: 10, or SEQ ID NO: 12 by detecting the presence of N-sulfated polysaccharide products formed as a result of their sulfotransfer reaction, using mass spectrometry (MS). Each engineered enzyme was purified according to the procedure of Example 1. Sulfotransferase activity was monitored in 100 μL reactions containing 50 μM of enzyme. To each purified protein solution, 20 mg of an aryl sulfate compound (either PNS or NCS) was dissolved in 2 mL of reaction buffer (50 mM IVIES pH 7.0, 2 mM CaCl2)), added to the protein solution, and incubated at 37° C. for 10 min. 2.5 mL of 2 mg/mL solution of N-deacetylated heparosan was added to protein/donor solution and incubated overnight at 37° C. The N-deacetylated heparosan was synthesized according to the protocol described in Balagurunathan, K. et al (eds.) (2015), Glycosaminoglycans: Chemistry and Biology, Methods in Molecular Biology, vol. 1229, DOI 10.1007/978-1-4939-1714-3_2, ©Springer Science+Business Media, New York, pp. 11-19 (section 3.1). To purify the N-sulfated product, the incubated reaction mixture was centrifuged the following day at 5,000×g for 10 min. The filter was washed once with 2 mL water, and centrifuged again. The filtrate was added to a 1K MWCO Dialysis membrane, dialyzed for 2 days in Milli-Q water, with water changes at 1 h, 2 h, 8 h, 16 h, 32 h, and then lyophilized.
The lyophilized N-sulfated products from each reaction were subsequently digested with a mixture of three carbon-oxygen lyases comprising the amino acid sequences of SEQ ID NO: 30, SEQ ID NO: 31, and SEQ ID NO: 32, which catalyze the β-eliminative cleavage of heparosan-based polysaccharides. Such lyases are available from New England Biolabs, among other chemical and biological commercial entities. 1 μL of each lyase was incubated with 50 μg of the lyophilized sulfated polysaccharide product and the provided digestion buffer, and incubated over 24 hours according to the packaged instructions provided by New England Biolabs with each lyase. After digestion, the lyase enzymes were inactivated by heating to 100° C. for 5 minutes. Samples were centrifuged at 14,000 rpm for 30 minutes before introduction to a strong anion exchange, high performance liquid chromatography (SAX) analysis. SAX analysis was performed on a Dionex Ultimate 3000 LC system interface. Separation was carried out on a 4.6×250 mm Waters Spherisorb analytical column with 5.0 μm particle size at 45° C. Mobile phase solution A was 2.5 mM sodium phosphate, pH 3.5, while mobile phase solution B was 2.5 mM sodium phosphate, pH 3.5, and 1.2 M Sodium perchlorate. After each sample was loaded onto the column, mobile phase solutions were applied to the column at a ratio of 98% mobile phase solution A and 2% mobile phase solution B for five minutes at a flow rate of 1.4 mL/min. After five minutes, a linear gradient of increasing mobile phase solution B was applied until the ratio of mobile phase solution A to mobile phase solution B was 50:50.

[2] = 6OST activity: 6-O sulfated products detected by LCMS after lyase digestion; type: biochemical; conditions: procedures of Example 4; expected
Procedure: A study was conducted in accordance with embodiments of the present disclosure to confirm 6OST activity of enzymes comprising the amino acid sequence of SEQ ID NO: 18, SEQ ID NO: 20, or SEQ ID NO: 22 by detecting the presence of 6-O sulfated polysaccharide products as a result of their sulfotransfer reaction, using a similar LCMS procedure as in Example 3, except that the sulfo acceptor polysaccharide was prepared by chemically 6-O desulfating commercially available heparin (CAS code: 9041-08-1, available from Millipore Sigma), according to the procedure provided by Kariya, Y., et al., (2000) J. Biol. Chem. 275 (34):25949-25958).

Row | Molecule | NST sulfotransferase activity with aryl sulfate compounds [1] | 6OST activity: N,2,6-HS products by MS [2]
1 | B1 | activity with NCS only | 
2 | B2 | activity with PNS only | 
3 | B3 | activity with NCS only | 
4 | B4 | activity with both aryl sulfate compounds | 
5 | B5 | activity with NCS only | 
6 | B6 |  | confirm the presence of N,2,6-HS products
7 | B7 |  | confirm the presence of N,2,6-HS products
8 | B8 |  | confirm the presence of N,2,6-HS products

— patent US11629364B2, “Methods for synthesizing anticoagulant polysaccharides” (OPTIMVIA, LLC, priority 2019, dated 2023)
